Some targets named below: GD-pangolin RBD protein (pangolin-CoV-GD); GX-pangolin RBD protein (pangolin-CoV-GX); SARS-CoV RBD protein (SARS-CoV, UniProt P59594).
Holding throughout (test): BLI
For experiment [1], the target named is RaTG13 RBD protein (RaTG13).
The target of experiment [2] is RaTG13 RBD protein (RaTG13). The source holds these as a separate data set.

Where two headings read alike, the source gives them in different places.

B1: GW01 (antibody, V domains shown)
VH: EVQLVESGGGVVQPGGSLRLSCAASGFRFDDHAMHWVRQAPGKGLEWVSVISGDGGSTYYADSVKGRFSISRDDSKNSLYLQMNSLRTEDTALYYCAKDRSYGPPDVFNYEYGMDVWGQGTTVTVSS
VL: not shown
The Kd is a measure of binding affinity in units of concentration. A higher Kd goes with a looser complex. For B1, the equilibrium dissociation constant (Kd) came out at 14.4 nM in the experiment with RaTG13 RBD protein [1]; 4.05 nM with GD-pangolin RBD protein; 7.42 nM with GX-pangolin RBD protein; 1.49 nM with SARS-CoV RBD protein; 14.2 nM with RaTG13 RBD protein [2].

The values above are taken from article PMC9021188 (2022).
